One assay concerns melanoma. Put plainly: in vitro inhibition effect on melanoma, WST-1 method. Format: cell-based. The following applies: 24 h, x ± s, n = 9. The method, then:
In vitro experiment: testing the inhibition effect of the fusion protein rLZ-8-HSA on the melanoma through a WST-1 method, preparing tissue suspension of the melanoma; adding 100 μl the tissue suspension into 900 μl 2% glacial acetic acid and counting with a microscope; adjusting a tissue concentration to 2×10^5/ml with DMEM comprising 2% calf serum; respectively preparing the fusion protein rLZ-8-HSA and the rLZ-8 with same molar concentration gradient, wherein there are 3 gradient concentrations, each concentration occupies 9 wells with 100 μl per well; adding tissue suspension with a concentration of 2×10^5/ml with 100 μl per well; shaking for evenly mixing, and then putting into a 37° C., 5% CO2 incubation device to incubate for 24 h; after incubation, adding WST-1 with 20 μl per well; putting into the 37° C., 5% CO2 incubation device to incubate for 3 h, then testing OD450 (with a BIO-RAD); wherein results are listed in table 3.

Another assay concerns mouse spleen cells. Put plainly: promotion of mouse spleen cell proliferation, WST-1 method. It counts as cell-based. The following applies: for OD450, promotion of cell proliferation: 24 h, x ± s, n = 9. The method, then:
Testing effects of the fusion proteins on mouse spleen cell proliferation by a WST-1 method, which illustrates strength of biological activity, wherein according to the present invention, BALB/c female mice are used, whose weight is controlled at 20-22 g; executing the mice by stretching necks thereof, taking out spleens under a sterile condition, and putting into a plate with 5 ml DMEM comprising 10% calf serum; cracking the spleens with tweezers, filtering tissue suspension with gauze for removing tissue blocks, and preparing cell suspension of spleen cells; adding 100 μl the tissue suspension into 900 μl 2% glacial acetic acid for counting with a microscope; adjusting a cell concentration to 5×10^6/ml with DMEM comprising 2% calf serum; respectively preparing the fusion proteins and the rLZ-8 with same molar concentration gradient, wherein there are 3 gradient concentrations, each concentration occupies 9 wells with 100 μl per well; adding tissue suspension with a concentration of 5×10^6/ml with 100 μl per well; shaking for evenly mixing, and then putting into a 37° C., 5% CO2 incubation device to incubate for 24 h; after incubation, adding WST-1 with 20 μl per well; putting into the 37° C., 5% CO2 incubation device to incubate for 3 h, then testing OD450 (with a BIO-RAD); wherein results are listed in table 1.
In general terms: Tetrazolium dyes change colour on reduction, which living cells bring about.

Assay [1] concerns mouse melanoma cells B16-F10. The assay can be described thus: mouse B16-F10 transplanted tumor model, in situ tumor weight. Format: in vivo. As to conditions: tail vein once a day, 28 days. The method, then: In vivo experiment: firstly, establishing a mouse tumor mould, wherein mouse melanoma cells B16-F10 is cultured with the DMEM comprising 10% fetal calf serum at 37° C. in a CO2 incubation device; slowly subcutaneously injecting 200 μl B16-F10 cell suspension (comprising 1×10^7 cells) with a 1 ml injector at mouse dorsal-ventral skin, so as to establish a mouse transplanted tumor mould.

B1: rLZ-8-HSA: fusion protein of ganoderma immunoregulatory protein (LZ-8) and human serum albumin, linker GGGGSS, SEQ ID NO. 1 (protein)
chain: SDTALIFRLAWDVKKLSFDYTPNWGRGNPNNFIDTVTFPKVLTDKAYTYRVAVSGRNLGVKPSYAVESDGSGKVNFLEYNSGYGIADTNTIGVFVVDPDTNNDFIIAGWNGGGGSSMKWVTFISLLFLFSSAYSRGVFRRDAHKSEVAHRFKDLGEENFKALVLIAFAGYLGGCPFEDHVKLVNEVTEFAKTCVADESAENCDKSLHTLFGDKLCTVATLRETYGEMADCCAKGEPERNECFLGHKDDNPNLPRLVRPEVDVMCTAFHDNEETFLKKYLYEIARRHPYFYAPELLFFAKRYKAAFTECCGAADKAACLLPKLDELRDEGKASSAKGRLKCASLGKFGERAFKAWAVARLSGRFPKAEFAEVSKLVTDLTKVHTECCHGDLLECADDRADLAKYICENGDSISSKLKECCEKPLLEKSHCIAEVENDEMPADLPSLAADFVESKDVCKNYAEAKDVFLGMFLYEYARRHPDYSVVLLLRLAKTYETTLEKCCAAADPHECYAKVFDEFKPLVEEPGNLIKGNCELFEGLGEYKFGNALLVRYTKKVPGVSTPTLVEVSRNLGKVGSKCCKHPEAKRMPCAEDYLSVVLNGLCVLHEKTPVSDRVTKCCTESLVNRRPCFSALEVDETYVPKEFNAETFTFHADICTLSEKERGIKKGTALVELVKHKPKATKEGLKAVMDDFAAFVEKCCKADDKETCFAEEGKKLVAASGAALGL
modifications: rLZ-8-HSA sequence
As for B1, the “OD450, inhibition effect on melanoma” value with melanoma (protein 5.0 × 10^−9 mol/L) stood at 0.411 ± 0.31; in the assay with melanoma (protein 10.0 × 10^−9 mol/L) it was 0.212 ± 0.29; in the assay with melanoma (protein 15.0 × 10^−9 mol/L), 0.118 ± 0.11. Moreover, the results for the “OD450, promotion of cell proliferation” value with mouse spleen cells (protein 5.0 × 10^−9 mol/L), with mouse spleen cells (protein 10.0 × 10^−9 mol/L) and in the assay on mouse spleen cells (protein 15.0 × 10^−9 mol/L) were 0.936 ± 0.31, 1.680 ± 0.38 and 2.373 ± 0.35, respectively. Besides, in the assay with mouse spleen cells (same protein concentration), the “promotion of spleen cell proliferation compared with rLZ-8” value was “better than the rLZ-8”. For the same molecule, the figures for the tumor inhibition rate in assay [1] (high-dosage 492 μg/kg (LZ-8)), in assay [1] (low-dosage 123 μg/kg (LZ-8)) and in assay [1] (middle-dosage 246 μg/kg (LZ-8)) were 89.51 ± 0.88 %, 71.77 ± 0.31 % and 78.22 ± 0.47 %, respectively. For the same molecule, the tumor weight is 0.13 ± 0.05 g in assay [1] (high-dosage 492 μg/kg (LZ-8)), 0.35 ± 0.11 g in assay [1] (low-dosage 123 μg/kg (LZ-8)) and 0.27 ± 0.14 g in assay [1] (middle-dosage 246 μg/kg (LZ-8)).

B2: rLZ-8: recombinant ganoderma immunoregulatory protein which is not fused, comparator (protein, UniProt P14945 2-111, looked up)
Immunomodulatory protein Ling …: SDTALIFRLAWDVKKLSFDYTPNWGRGNPNNFIDTVTFPKVLTDKAYTYRVAVSGRNLGVKPSYAVESDGSQKVNFLEYNSGYGIADTNTIQVFVVDPDTNNDFIIAQWN
Regarding B2, the “OD450, inhibition effect on melanoma” value in the assay on melanoma (protein 5.0 × 10^−9 mol/L) is 0.427 ± 0.44; in the assay with melanoma (protein 10.0 × 10^−9 mol/L), 0.372 ± 0.21; in the assay with melanoma (protein 15.0 × 10^−9 mol/L), 0.302 ± 0.24. Also, the “OD450, promotion of cell proliferation” value in the assay on mouse spleen cells (protein 5.0 × 10^−9 mol/L) amounted to 0.739 ± 0.23; with mouse spleen cells (protein 10.0 × 10^−9 mol/L), 1.197 ± 0.31; with mouse spleen cells (protein 15.0 × 10^−9 mol/L), 1.567 ± 0.27. In addition, the figures for the tumor inhibition rate in assay [1] (high-dosage 492 μg/kg (LZ-8)), in assay [1] (low-dosage 123 μg/kg (LZ-8)) and in assay [1] (middle-dosage 246 μg/kg (LZ-8)) were 83.04 ± 0.51 %, 56.72 ± 0.41% and 64.91 ± 0.77%, respectively. In addition, the values for the tumor weight in assay [1] (high-dosage 492 μg/kg (LZ-8)), in assay [1] (low-dosage 123 μg/kg (LZ-8)) and in assay [1] (middle-dosage 246 μg/kg (LZ-8)) were 0.25 ± 0.04 g, 0.53 ± 0.21 g and 0.43 ± 0.17 g, respectively.

The values are drawn from US20160289280A1, “Fusion protein of recombinant ganoderma immunoregulatory protein and human serum albumin, preparation method thereof, and application thereof” (priority 2013, published 2016).
